Measured values: patent US11370846B2, “Compositions and methods to regulate Renalase in the treatment of cancer” (Yale University, priority 2014, dated 2022)
Positions count from the first letter of the chain named. Where two headings read alike, the source gives them in different places.

Columns and labels:
MiaPaCa2 cells = assay: FACS cell cycle analysis of MiaPaCa2 cells treated with rRNLS; type: cell-based, human; conditions: 30 μg/ml, compared to BSA
Description: For cell cycle analysis, cultured cells were dissociated using 10 mM EDTA, fixed with ice-cold 70% ethanol, digested with RNAse A, and stained with propidium iodide. Propidium staining was detected using a BD FACSCalibur flow cytometer (BD Biosciences, San Jose, Calif., USA), and analyzed using CellQuest software.

[1] = test system: melanoma cells (A375.S2, MeWo, SkMe15, and SkMe128); assay: Survival of serum-starved melanoma cells with rRNLS, WST-1; type: cell-based, human; conditions: 30 ug/ml, 72 hrs, compared to BSA
Description: FIG. 18A and FIG. 18B are two charts showing that RNLS overexpression favors cancer cell survival.
(§1) For additional studies, cell viability was determined using WST-1 reagent (Roche Diagnostics, Indianapolis, Ind., USA) according to the manufacturers' instruction. Absorbances were read using a microplate reader (Power Waves XS, BioTek Instruments, Winooski, Vt., USA).

STAT3 [2] = assay: STAT phosphorylation in HK-2 cells treated with RNLS; type: cell-based, human
STAT3 [3] = assay: STAT3 phosphorylation in Panc1 cells by western blot; type: cell-based, human; conditions: addition of RNLS
Text: FIG. 27A through FIG. 27E are a series of images and charts showing the interaction between RNLS and STAT3, and the mechanistic model of inhibition by m28-RNLS. FIG. 27A is an image showing activation of STAT3 by RNLS in Panc1 cells; Panc1 cells in culture treated with either BSA or RNLS, and STAT3 phosphorylation assessed by western blot; p-Ser^727-STAT3: phosphorylation at serine 727, p-Y^705-STAT3: phosphorylation at tyrosine 705; representative study. FIG. 27B is a chart depicting the quantification of STAT3 phosphorylation with RNLS; signals normalized to total STAT3; n=3, *=P<0.05. […] FIG. 27D is a chart showing the quantification of STAT3 phosphorylation with m28-RNLS; signals normalized to GAPDH loading control; n=3, *=P<0.05. FIG. 27E depicts the proposed mechanistic model for antitumor activity of m28-RNLS.

[4] = test system: renalase-1 and renalase-2; assay: Renalase isoform specificity of anti-renalase antibodies; type: binding, human; conditions: renalase-1 vs renalase-2
Description: Peptides were used as immunogens. The peptides generated ranged from 9 to 21 amino acids and corresponded to regions of the renalase-1 and renalase-2 proteins. […] Each peptide was conjugated to the adjuvant KLH via the cysteine and used to immunize 6 rabbits. Antiserum collected from each animal was screened for anti-renalase antibody titer by ELISA assay using both the relevant peptide (BSA-conjugate) or full length renalase-1 or 2. The antisera were also tested for their ability to detect endogenous renalase in tissue lysates by western blot. Using these screening criteria the animals producing antibodies with the preferred characteristics were selected. In some examples and for some peptides, several animals produced antibodies with the required specificity. […] Polyclonal antibodies raised against all of the peptides were generated by purification of total IgG from terminal bleeds by protein G chromatography followed by further purification on peptide affinity chromatography. Further and using standard procedures, lymphocytes from the spleens of selected animals were fused to myeloma cells for hybridoma generation. The hybridoma supernatants were screened for binding to both the peptides against which they were raised and secondarily screened against whole renalase protein. Selected hybridomas were sub-cloned and expanded for antibody purification. The monoclonal antibodies were purified from conditioned hybridoma culture supernatant by protein A affinity chromatography.

PDACC = PDACC growth with anti-RNLS antibodies, WST-1; type: cell-based, human; conditions: 72 hrs
Description: FIG. 25A through FIG. 25E are a series of charts and images showing that inhibition of RNLS signaling is cytotoxic to cancer cells in vitro and in vivo. FIG. 25A is a chart showing relative cell viability following transient transfection of Panc1 cells using a RNLS-specific siRNA, or a non-specific control siRNA, and cell viability assayed 96 h later using the WST-1 reagent; n=6, ** indicates p<0.001. FIG. 25B is a chart showing relative cell viability when cells were treated with indicated antibodies for 72 hrs and cell viability determined using WST-1; m28-RNLS and m37-RNLS: monoclonal antibodies raised against RNLS peptide RP220, ab31291: Abcam polyclonal antibody raised against a partial sequence of RP-220; n=6, * indicates p<0.005. […] FIG. 25D is a chart showing tumor volume increase after athymic nude mice received subcutaneous injection of Panc1 cells transduced with RNLS shRNA (sh-RNLS) or control (sh-Control); tumor volume measured every […] for up to 30 days, n=6 each; * indicates p<0.05. FIG. 25E is chart showing tumor volume increase after nude mice were xenografted with BxPC3; tumor volume measured prior to treatment every 3-4 days with 2 mg/kg of either rabbit IgG as a negative control or with m28-RNLS, n=10, * indicates p<0.05.

melanoma cells = assay: Melanoma cell lines in culture, viability/growth; type: cell-based, human
Description: FIG. 19A through FIG. 19D are a series of images and charts showing that inhibition of RNLS signaling is cytotoxic to melanoma cells in vitro. […] FIG. 19B comprises two charts depicting relative cell viability: Left panel: Cells were treated with indicated antibodies for 72 hrs and cell viability was determined using WST-1; m28-RNLS (also known as 1D-28-4), m37-RNLS (also known as 1D-37-10): monoclonal antibodies raised against RNLS peptide RP220; Right panel: A375.S2 cells treated with increasing doses of m28-RNLS for 72 hrs and cell viability determined with a WST-1 assay; n=6, * indicates p<0.05 and ** indicates p<0.005. FIG. 19C comprises representative photos of A375.S2, SkMe128, and SkMe15 after 72 hrs incubation with either control rabbit IgG or m28-RNLS. FIG. 19D is a chart depicting relative cell viability, comprising amino acid (AA) sequence of RNLS peptide antagonist (RP220A).
as §1

B1: rRNLS: Recombinant human RNLS (renalase) (protein)
chain: ALLRRQTSGPLYLAVWDKAEDSGGRMTTACSPHNPQCTADLGAQYITCTPHYAKKHQRFYDELLAYGVLRPLSSPIEGMVMKEGDCNFVAPQGISSIIKHYLKESGAEVYFRHRVTQINLRDDKWEVSKQTGSPEQFDLIVLTMPVPEILQLQGDITTLISECQRQQLEAVSYSSRYALGLFYEAGTKIDVPWAGQYITSNPCIRFVSIDNKKRNIESSEIGPSLVIHTTVPFGVTYLEHSIEDVQELVFQQLENILPGLPQPIATKCQKWRHSQVTNAAANCPGQMTLHHKPFLACGGDGFTQSNFDGCITSALCVLEALKNYI
In the case of B1, the cell cycle progression (MiaPaCa2 cells) is reported as “no effect”, the “survival of serum-starved melanoma cells” value [1] is reported as “markedly increased the survival” and the “increase in STAT3 phosphorylation at serine 727 (p-Ser727-STAT3)” value (STAT3 [2]) is reported as 2 fold. The “increase in STAT3 phosphorylation at tyrosine 705 (p-Y705-STAT3)” value (STAT3 [2]) was 4 fold and the “phosphorylated STAT3 (p-Ser727-STAT3 and p-Y705-STAT3) in Panc1” value (STAT3 [3]) was “rapid increase”.

B2: 3A-5-2: anti-renalase monoclonal specific for renalase-2 (antigen 3A); heavy chain SEQ ID NO:41, light chain SEQ ID NO:42 (antibody)
heavy: METGLRWLLLVAVLKGVQCQSLEESGGRLVTPGTPLTLTCTVSGFSLNNYHIYWVRQAPGKGLEYIGIIFNGGTYYARWTKGRFTISKTSTTVDLKMTSLTTEDTATYFCARGDGIWGPGTLVTVSLGQPKAPSVFPLAPCCGDTPSSTVTLGCLVKGYLPEPVTVTWNSGTLTNGVRTFPSVRQSSGLYSLSSVVSVTSSSQPVTCNVAHPATNTKVDKTVAPSTCSKPTCPPPELLGGPSVFIFPPKPKDTLMISRTPEVTCVVVDVSQDDPEVQFTWYINNEQVRTARPPLREQQFNSTIRVVSTLPIAHQDWLRGKEFKCKVHNKALPAPIEKTISKARGQPLEPKVYTMGPPREELSSRSVSLTCMINGFYPSDISVEWEKNGKAEDNYKTTPAVLDSDGSYFLYSKLSVPTSEWQRGDVFTCSVMHEALHNHYTQKSISRSPGK
light: MDTRAPTQLLGLLLLWLPGATFAQVLTQTPASVSAAVGGTVTINCQASQSVFNNNYLAWYQQKPGQPPKRLIYSASTLASGVSSRFKGSGSGTEFTLTMSGVECDDAATYYCAGSFDCNSGDCVAFGGGTEVVVKGDPVAPTVLIFPPAADQVATGTVTIVCVANKYFPDVTVTWEVDGTTQTTGIENSKTPQNSADCTYNLSSTLTLTSTQYNSHKEYTCKVTQGTTSVVQSFNRGDC
modifications: oryctolagus cuniculus
For B2, the renalase isoform specificity [4] was “specific for renalase-2”.

B3: 1D-37-10: rabbit anti-renalase monoclonal raised against peptide RP-220 (antigen 1D); heavy chain SEQ ID NO:17, light chain SEQ ID NO:18 (antibody)
heavy: METGLRWLLLVAVLKGVQCQSVEESGGRLVTPGGSLTLTCTVSGFSLSDYAIIWVRQAPGKGLEYIAIIGSSGDTFYATWAKGRFTISKTSTTVDLKMTSLTAADTATYFCAPRYAGTTDYHDAFDPWGPGTLVTVSSGQPKAPSVFPLAPCCGDTPSSTVTLGCLVKGYLPEPVTVTWNSGTLTNGVRTFPSVRQSSGLYSLSSVVSVTSSSQPVTCNVAHPATNTKVDKTVAPSTCSKPTCPPPELLGGPSVFIFPPKPKDTLMISRTPEVTCVVVDVSQDDPEVQFTWYINNEQVRTARPPLREQQFNSTIRVVSTLPIAHQDWLRGKEFKCKVHNKALPAPIEKTISKARGQPLEPKVYTMGPPREELSSRSVSLTCMINGFYPSDISVEWEKNGKAEDNYKTTPAVLDSDGSYFLYSKLSVPTSEWQRGDVFTCSVMHEALHNHYTQKSISRSPGK
light: MDTRAPTQLLGLLLLWLPGARCAEVVMTQTPASMEAPMGGTVTIKCQASQNIYNYLSWYQQKPGQPPKLLVYKASTLTSGVPSRFKGSGSGTQFTLTISDLECADAATYYCQINYSIYNHYNIIFGGGTEVVVKGDPVAPTVLIFPPSADLVATGTVTIVCVANKYFPDVTVTWEVDGTTQTTGIENSKTPQNSADCTYNLSSTLTLTSTQYNSHKEYTCKVTQGTTSVVQSFNRGDC
modifications: oryctolagus cuniculus
For B3, the PDACC growth (PDACC) was “inhibitory effects”, the renalase isoform specificity [4] was “recognize renalase-1 and renalase-2” and the “melanoma cell growth/viability in culture” value (melanoma cells) was “inhibit melanoma cells in culture”. For the same molecule, the “melanoma cell growth/viability in culture” value (melanoma cells; listed as D-37-10) was “inhibit melanoma cell growth” and the “melanoma cell growth/viability in culture” value (melanoma cells; listed as m37-RNLS) was “decreased the viability of all (total of 5) melanoma cell lines tested”.

B4: 1F-26-1: anti-renalase monoclonal specific for renalase-1 (antigen 1F); heavy chain SEQ ID NO:25, light chain SEQ ID NO:26 (antibody)
heavy: METGLRWLLLVAVLKGVQCQSVKESEGGLFKPTDTLTLTCTVSGFSLSSYGVTWVRQAPGNGLEWIGLIGDRGTTFYASWAKSRSTITRNTNLNTVTLKMTRLTAADTATYFCARGSGYGARIWGPGTLVTVSSWQPKAPSVFPLAPCCGDTPSSTVTLGCLVKGYLPEPVTVTWNSGTLTNGVRTFPSVRQSSGLYSLSSVVSVTSSSQPVTCNVAHPATNTKVDKTVAPSTCSKPTCPPPELLGGPSVFIFPPKPKDTLMISRTPEVTCVVVDVSQDDPEVQFTWYINNEQVRTARPPLREQQFNSTIRVVSTLPIAHQDWLRGKEFKCKVHNKALPAPIEKTISKARGQPLEPKVYTMGPPREELSSRSVSLTCMINGFYPSDISVEWEKNGKAEDNYKTTPAVLDSDGSYFLYSKLSVPTSEWQRGDVFTCSVMHEALHNHYTQKSISRSPGK
light: MDTRAPTQLLGLLLLWLPGATFAQVLTQTPSPVSAAVGGTVTINCQSSQSVYKNNYLAWYQQKPGQPPKLLIYETSKLASGVPPRFSGSGSGTQFTLTISSVQCDDAATYYCQGGYSGVDFMAFGGGTEVVVKGDPVAPTVLIFPPSADLVATGTVTIVCVANKYFPDVTVTWEVDGTTQTTGIENSKTPQNSADCTYNLSSTLTLTSTQYNSHKEYTCKVTQGTTSVVQSFNRGDC
modifications: oryctolagus cuniculus
For B4, the renalase isoform specificity [4] was “specific for renalase-1”.

B5: 1F-42-7: anti-renalase monoclonal specific for renalase-1 (antigen 1F); heavy chain SEQ ID NO:33, light chain SEQ ID NO:34 (antibody)
heavy: B4 heavy with S48T, S49T, F76Y, A81V, K82N, S83G, S133A
light: B4 light with V33M, V37L, S50T, K53N, A58S, A79S
modifications: oryctolagus cuniculus
With B5 the renalase isoform specificity [4] was “specific for renalase-1”.
